{"source": "paper PMC7018950", "key": {"[1]": {"target": "His6-tagged Ginkgo biloba chalcone synthase (GbCHS) (Ginkgo biloba)", "experiment": "BLI; BLItz; His6-tagged CHS immobilised on anti-His6 sensors, GST-tagged CHIL loaded (30-150 s), wash (150-270 s); 100 mM HEPES-NaOH, pH 7.5; 1:1 binding model; apparent KD"}, "[2]": {"target": "His6-tagged soybean chalcone synthase isozyme 1 (GmCHS-1) (Glycine max) (UniProt P24826)", "sequence (P24826 whole entry)": "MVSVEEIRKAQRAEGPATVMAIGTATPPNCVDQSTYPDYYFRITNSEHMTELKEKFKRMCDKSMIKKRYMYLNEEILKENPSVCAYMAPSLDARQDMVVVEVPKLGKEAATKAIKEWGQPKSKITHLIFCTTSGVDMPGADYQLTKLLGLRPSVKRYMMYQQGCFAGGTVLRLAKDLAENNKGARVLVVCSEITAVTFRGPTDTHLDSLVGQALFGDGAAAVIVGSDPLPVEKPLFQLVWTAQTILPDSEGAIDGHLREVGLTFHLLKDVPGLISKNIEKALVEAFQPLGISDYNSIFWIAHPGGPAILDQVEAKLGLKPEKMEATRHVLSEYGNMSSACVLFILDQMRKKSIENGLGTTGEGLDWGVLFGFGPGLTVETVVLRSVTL", "experiment": "BLI; BLItz; His6-tagged CHS immobilised on anti-His6 sensors, GST-tagged CHIL loaded (30-150 s), wash (150-270 s); 100 mM HEPES-NaOH, pH 7.5; 1:1 binding model; apparent KD"}, "[3]": {"target": "His6-tagged soybean chalcone synthase isozyme 7 (GmCHS-7) (Glycine max) (UniProt P30081)", "sequence (P30081 whole entry)": "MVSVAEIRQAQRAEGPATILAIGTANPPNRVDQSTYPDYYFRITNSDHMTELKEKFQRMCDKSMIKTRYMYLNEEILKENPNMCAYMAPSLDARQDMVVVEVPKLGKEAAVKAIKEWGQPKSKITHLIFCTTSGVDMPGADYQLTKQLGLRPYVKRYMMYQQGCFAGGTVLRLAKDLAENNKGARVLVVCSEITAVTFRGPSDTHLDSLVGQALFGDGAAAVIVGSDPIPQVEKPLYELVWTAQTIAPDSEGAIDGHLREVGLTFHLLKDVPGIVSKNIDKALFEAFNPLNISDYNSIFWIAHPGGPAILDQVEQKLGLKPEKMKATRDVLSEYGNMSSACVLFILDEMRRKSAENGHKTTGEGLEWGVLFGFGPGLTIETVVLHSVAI", "experiment": "BLI; BLItz; His6-tagged CHS immobilised on anti-His6 sensors, GST-tagged CHIL loaded (30-150 s), wash (150-270 s); 100 mM HEPES-NaOH, pH 7.5; 1:1 binding model; apparent KD"}, "[4]": {"target": "His6-tagged Hydrangea macrophylla chalcone synthase (HmCHS) (Hydrangea macrophylla) (UniProt O82144)", "sequence (O82144 whole entry)": "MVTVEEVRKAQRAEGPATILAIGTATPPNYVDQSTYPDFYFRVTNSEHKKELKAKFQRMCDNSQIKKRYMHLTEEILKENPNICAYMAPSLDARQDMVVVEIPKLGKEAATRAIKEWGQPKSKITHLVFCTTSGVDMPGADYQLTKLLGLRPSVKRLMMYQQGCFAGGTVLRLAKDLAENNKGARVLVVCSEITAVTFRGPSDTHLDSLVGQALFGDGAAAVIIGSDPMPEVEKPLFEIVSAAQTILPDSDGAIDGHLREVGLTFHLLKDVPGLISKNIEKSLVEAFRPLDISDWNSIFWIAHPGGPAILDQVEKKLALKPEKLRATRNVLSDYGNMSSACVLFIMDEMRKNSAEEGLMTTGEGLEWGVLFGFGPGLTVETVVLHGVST", "experiment": "BLI; BLItz; His6-tagged CHS immobilised on anti-His6 sensors, GST-tagged CHIL loaded (30-150 s), wash (150-270 s); 100 mM HEPES-NaOH, pH 7.5; 1:1 binding model; apparent KD"}, "[5]": {"target": "His6-tagged rice chalcone synthase 1 (OsCHS-1) (Oryza sativa) (UniProt Q2R3A1)", "sequence (Q2R3A1 whole entry)": "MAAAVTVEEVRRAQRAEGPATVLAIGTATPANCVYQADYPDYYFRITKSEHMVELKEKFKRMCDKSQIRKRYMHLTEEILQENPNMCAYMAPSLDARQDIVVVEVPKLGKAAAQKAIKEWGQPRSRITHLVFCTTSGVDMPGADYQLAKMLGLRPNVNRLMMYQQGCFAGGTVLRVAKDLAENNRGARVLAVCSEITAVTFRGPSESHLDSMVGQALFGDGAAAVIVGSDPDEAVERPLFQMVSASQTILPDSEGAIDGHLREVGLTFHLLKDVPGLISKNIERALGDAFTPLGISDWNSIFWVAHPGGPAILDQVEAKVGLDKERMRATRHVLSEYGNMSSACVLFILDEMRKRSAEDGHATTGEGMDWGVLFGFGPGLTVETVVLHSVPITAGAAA", "experiment": "BLI; BLItz; His6-tagged CHS immobilised on anti-His6 sensors, GST-tagged CHIL loaded (30-150 s), wash (150-270 s); 100 mM HEPES-NaOH, pH 7.5; 1:1 binding model; apparent KD"}, "[6]": {"target": "His6-tagged snapdragon chalcone synthase (His6-AmCHS) (Antirrhinum majus) (UniProt P06515)", "sequence (P06515 whole entry)": "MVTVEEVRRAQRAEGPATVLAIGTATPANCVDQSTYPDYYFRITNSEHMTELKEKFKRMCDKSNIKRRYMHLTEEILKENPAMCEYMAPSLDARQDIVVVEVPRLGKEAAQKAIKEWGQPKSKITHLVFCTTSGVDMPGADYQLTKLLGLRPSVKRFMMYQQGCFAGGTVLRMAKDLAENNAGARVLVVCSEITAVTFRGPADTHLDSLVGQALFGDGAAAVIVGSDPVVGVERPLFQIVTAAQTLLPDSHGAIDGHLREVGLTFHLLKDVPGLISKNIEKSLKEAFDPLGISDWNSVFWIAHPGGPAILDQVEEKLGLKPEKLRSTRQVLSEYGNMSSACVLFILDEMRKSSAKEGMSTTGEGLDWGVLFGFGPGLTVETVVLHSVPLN", "experiment": "BLI; BLItz; His6-tagged CHS immobilised on anti-His6 sensors, GST-tagged CHIL loaded (30-150 s), wash (150-270 s); 100 mM HEPES-NaOH, pH 7.5; 1:1 binding model; apparent KD"}, "[7]": {"target": "His6-tagged Selaginella moellendorffii chalcone synthase (SmCHS) (Selaginella moellendorffii)", "experiment": "BLI; BLItz; His6-tagged CHS immobilised on anti-His6 sensors, GST-tagged CHIL loaded (30-150 s), wash (150-270 s); 100 mM HEPES-NaOH, pH 7.5; 1:1 binding model; apparent KD"}, "[8]": {"target": "His6-tagged Physcomitrella patens chalcone synthase (PpCHS) (Physcomitrella patens)", "sequence (Q2VAZ3 entry or part of it)": "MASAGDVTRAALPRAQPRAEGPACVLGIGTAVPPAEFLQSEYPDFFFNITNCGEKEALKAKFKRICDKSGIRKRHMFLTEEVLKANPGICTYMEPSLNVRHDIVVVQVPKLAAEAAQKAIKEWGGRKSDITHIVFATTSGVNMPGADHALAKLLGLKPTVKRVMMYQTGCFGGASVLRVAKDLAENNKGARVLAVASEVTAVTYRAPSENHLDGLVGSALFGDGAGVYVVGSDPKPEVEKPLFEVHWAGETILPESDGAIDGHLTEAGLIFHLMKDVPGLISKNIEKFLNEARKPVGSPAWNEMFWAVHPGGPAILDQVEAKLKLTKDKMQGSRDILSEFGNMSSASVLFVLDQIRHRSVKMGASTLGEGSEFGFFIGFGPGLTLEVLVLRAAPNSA", "experiment": "BLI; BLItz; His6-tagged CHS immobilised on anti-His6 sensors, GST-tagged CHIL loaded (30-150 s), wash (150-270 s); 100 mM HEPES-NaOH, pH 7.5; 1:1 binding model; apparent KD"}, "[9]": {"target": "His6-tagged snapdragon CHS (Antirrhinum majus (snapdragon)) (UniProt P06515)", "sequence (P06515 whole entry)": "as the sequence (P06515 whole entry) above"}, "[10]": {"target": "His6-tagged snapdragon CHS (Antirrhinum majus (snapdragon)) (UniProt P06515)", "experiment": "cross-linking; His6-AmCHIL 10 µM and His6-AmCHS 5 µM with 4 mM BS3 at pH 7.5 for 5 min; SDS-PAGE and immunoblot; band of 70 kDa"}, "[11]": {"target": "His6-tagged morning glory chalcone synthase D (InCHS-D) (Ipomoea nil) (UniProt O22045)", "sequence (O22045 whole entry)": "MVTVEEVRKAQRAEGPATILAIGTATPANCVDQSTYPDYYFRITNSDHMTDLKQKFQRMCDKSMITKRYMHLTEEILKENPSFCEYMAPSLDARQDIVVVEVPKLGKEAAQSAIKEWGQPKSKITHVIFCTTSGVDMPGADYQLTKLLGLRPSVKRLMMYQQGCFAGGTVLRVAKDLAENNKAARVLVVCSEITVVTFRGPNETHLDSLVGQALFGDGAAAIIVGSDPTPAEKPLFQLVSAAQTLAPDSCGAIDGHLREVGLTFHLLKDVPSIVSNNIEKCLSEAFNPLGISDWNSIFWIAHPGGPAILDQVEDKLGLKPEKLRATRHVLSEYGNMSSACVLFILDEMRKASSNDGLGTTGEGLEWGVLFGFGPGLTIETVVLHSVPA", "experiment": "BLI; BLItz; His6-tagged CHS immobilised on anti-His6 sensors, GST-tagged CHIL loaded (30-150 s), wash (150-270 s); 100 mM HEPES-NaOH, pH 7.5; 1:1 binding model; apparent KD"}, "[12]": {"target": "PpCHS (GAL4 two-hybrid fusion) (Physcomitrella patens)"}, "[13]": {"target": "His6-tagged CHS of ginkgo (Ginkgo biloba)", "experiment": "BLI; BLItz; His6-tagged CHS immobilised on anti-His6 sensors, GST-tagged CHIL loaded; 100 mM HEPES-NaOH pH 7.5; 1:1 binding model; apparent KD"}}, "data": [{"substance": "glutathione S-transferase-tagged Ginkgo biloba chalcone isomerase-like protein (GbCHIL) (natural protein)", "values": [{"measurement": "koff", "setting": "[1]", "result": 0.000154, "unit": "s⁻¹"}, {"measurement": "kon", "setting": "[1]", "result": 20200, "unit": "M⁻¹ s⁻¹"}]}, {"substance": "glutathione S-transferase-tagged soybean chalcone isomerase-like protein (GmCHIL) (natural protein)", "values": [{"measurement": "Kd", "setting": "[2]", "result": 7.46, "unit": "nM"}, {"measurement": "koff", "setting": "[2]", "result": 0.000381, "unit": "s⁻¹"}, {"measurement": "kon", "setting": "[2]", "result": 51000, "unit": "M⁻¹ s⁻¹"}, {"measurement": "Kd", "setting": "[3]", "result": 19.3, "unit": "nM"}, {"measurement": "koff", "setting": "[3]", "result": 0.00113, "unit": "s⁻¹"}, {"measurement": "kon", "setting": "[3]", "result": 58300, "unit": "M⁻¹ s⁻¹"}]}, {"substance": "glutathione S-transferase-tagged Hydrangea macrophylla chalcone isomerase-like protein (HmCHIL) (natural protein)", "values": [{"measurement": "Kd", "setting": "[4]", "result": 24.1, "unit": "nM"}, {"measurement": "koff", "setting": "[4]", "result": 0.00277, "unit": "s⁻¹"}, {"measurement": "kon", "setting": "[4]", "result": 115000, "unit": "M⁻¹ s⁻¹"}]}, {"substance": "glutathione S-transferase-tagged rice chalcone isomerase-like protein A (OsCHIL-A) (natural protein)", "values": [{"measurement": "Kd", "setting": "[5]", "result": 64.4, "unit": "nM"}, {"measurement": "koff", "setting": "[5]", "result": 0.000672, "unit": "s⁻¹"}, {"measurement": "kon", "setting": "[5]", "result": 10400, "unit": "M⁻¹ s⁻¹"}]}, {"substance": "glutathione S-transferase-tagged snapdragon chalcone isomerase-like protein (AmCHIL) (natural protein)", "values": [{"measurement": "Kd", "setting": "[6]", "result": 62.6, "unit": "nM"}, {"measurement": "koff", "setting": "[6]", "result": 0.00183, "unit": "s⁻¹"}, {"measurement": "kon", "setting": "[6]", "result": 29300, "unit": "M⁻¹ s⁻¹"}]}, {"substance": "glutathione S-transferase-tagged Selaginella moellendorffii chalcone isomerase-like protein (SmCHIL) (natural protein)", "values": [{"measurement": "Kd", "setting": "[7]", "result": 56.6, "unit": "nM"}, {"measurement": "koff", "setting": "[7]", "result": 0.000674, "unit": "s⁻¹"}, {"measurement": "kon", "setting": "[7]", "result": 11900, "unit": "M⁻¹ s⁻¹"}]}, {"substance": "glutathione S-transferase-tagged Physcomitrella patens chalcone isomerase-like protein A (PpCHIL-A) (natural protein)", "values": [{"measurement": "Kd", "setting": "[8]", "result": 2.69, "unit": "nM"}, {"measurement": "koff", "setting": "[8]", "result": 0.000319, "unit": "s⁻¹"}, {"measurement": "kon", "setting": "[8]", "result": 118000, "unit": "M⁻¹ s⁻¹"}]}, {"substance": "His6-tagged snapdragon CHIL (natural protein)", "values": [{"measurement": "E value (chalconoid excess over CTAL) of the reaction catalysed by 0.1 µM AmCHS in the presence of 1 µM CHIL (+18% without CHIL)", "setting": "[9]", "result": 80, "unit": "%"}, {"measurement": "amount of THC and naringenin (chalconoids) formed by 0.1 µM AmCHS with 1.0 µM AmCHIL against without, with a substantial decrease in CTAL formation", "setting": "[9]", "result": 1.7, "unit": "fold"}, {"measurement": "stoichiometry N (CHIL monomer per CHS monomer)", "setting": "[10]", "result": 1}]}, {"substance": "glutathione S-transferase-tagged morning glory chalcone isomerase-like protein (InCHIL) (natural protein)", "values": [{"measurement": "Kd", "setting": "[11]", "result": 1.05, "unit": "nM"}, {"measurement": "koff", "setting": "[11]", "result": 0.000206, "unit": "s⁻¹"}, {"measurement": "kon", "setting": "[11]", "result": 196000, "unit": "M⁻¹ s⁻¹"}]}, {"substance": "PpCHIL (GAL4 two-hybrid fusion) (natural protein)", "values": [{"measurement": "E value (chalconoid excess over CTAL) of the reaction catalysed by 0.1 µM PpCHS in the presence of 1 µM CHIL (−67% without CHIL); purified recombinant proteins", "setting": "[12]", "result": 90, "unit": "%"}]}, {"substance": "glutathione S-transferase-tagged CHIL of ginkgo (natural protein)", "values": [{"measurement": "Kd", "setting": "[13]", "result": 126, "unit": "nM"}]}]}
